Numbering of substitutions follows the chain as printed. Names and notes keep the numbering of the source.
Key:
[1] = target: T1, recombinant Human Fc gamma RI/CD64 Protein (R&D systems, 1257-FC-050, CF) (human, UniProt P12314 16-288); test: ELISA; antibody coated, Fc gamma receptor titrated
T1 construct: also called FcγRI/CD64; human Fc gamma receptor I (CD64)

[2] = target: T2, recombinant Human Fc gamma RIIIA/CD16a Protein (R&D systems, 4325-FC-050; CF) (human, UniProt P08637 17-208, limits assumed); test: ELISA; antibody coated, Fc gamma receptor titrated
T2 construct: also called FcγRIIIa/CD16; human Fc gamma receptor IIIa (CD16)

[3] = target: T3, recombinant biotinylated human FcRn (human, UniProt P55899 24-297; P61769 21-119, limits assumed, biotinylated (site not stated)); test: AlphaLISA competition at pH 6; competitor: human IgG on acceptor beads
T3 construct: also called human neonatal Fc receptor (FcRn); human Fc neonatal receptor

[4] = target: T4, IL-18R on HEK-Blue IL18R reporter cells (InvivoGen, #hkb-hmi118) (UniProt Q13478 19-541; O95256 20-599, limits assumed); test: cell-based or functional assay
T4 sequence (looked up) 1: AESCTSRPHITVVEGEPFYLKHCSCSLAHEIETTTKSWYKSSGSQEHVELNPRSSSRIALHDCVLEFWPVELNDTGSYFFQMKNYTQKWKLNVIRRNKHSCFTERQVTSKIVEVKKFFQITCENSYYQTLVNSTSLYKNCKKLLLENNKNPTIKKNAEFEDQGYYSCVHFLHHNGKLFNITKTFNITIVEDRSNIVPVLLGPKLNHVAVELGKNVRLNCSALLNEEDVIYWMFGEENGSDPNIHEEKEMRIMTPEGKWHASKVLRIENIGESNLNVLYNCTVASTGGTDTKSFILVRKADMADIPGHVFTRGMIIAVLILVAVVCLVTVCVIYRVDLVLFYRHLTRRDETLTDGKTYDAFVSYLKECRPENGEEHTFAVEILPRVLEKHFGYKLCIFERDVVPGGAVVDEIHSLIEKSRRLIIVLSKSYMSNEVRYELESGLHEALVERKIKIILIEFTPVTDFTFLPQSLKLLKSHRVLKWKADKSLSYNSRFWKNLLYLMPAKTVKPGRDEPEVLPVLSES
T4 sequence (looked up) 2: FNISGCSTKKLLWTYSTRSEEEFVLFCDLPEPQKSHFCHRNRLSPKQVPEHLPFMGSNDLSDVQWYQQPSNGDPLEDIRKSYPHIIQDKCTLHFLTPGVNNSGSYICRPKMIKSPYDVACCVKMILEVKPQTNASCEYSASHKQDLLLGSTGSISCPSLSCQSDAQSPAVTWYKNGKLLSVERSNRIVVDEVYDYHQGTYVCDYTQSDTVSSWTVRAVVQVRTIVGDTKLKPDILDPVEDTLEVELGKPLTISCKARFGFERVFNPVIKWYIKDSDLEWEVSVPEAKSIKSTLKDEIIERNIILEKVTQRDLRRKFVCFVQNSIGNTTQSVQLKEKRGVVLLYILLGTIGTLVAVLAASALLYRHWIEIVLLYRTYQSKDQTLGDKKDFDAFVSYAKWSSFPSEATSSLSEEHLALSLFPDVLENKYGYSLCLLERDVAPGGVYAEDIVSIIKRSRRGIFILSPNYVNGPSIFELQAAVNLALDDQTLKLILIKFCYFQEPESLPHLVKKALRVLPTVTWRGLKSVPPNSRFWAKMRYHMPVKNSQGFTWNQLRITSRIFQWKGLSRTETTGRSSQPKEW

B1: Pembrolizumab/Keytruda (antibody, human IgG4 S228P, kappa)
heavy: not shown
light: EIVLTQSPATLSLSPGERATLSCRASKGVSTSGYSYLHWYQQKPGQAPRLLIYLASYLESGVPARFSGSGSGTDFTLTISSLEPEDFAVYYCQHSRDLPLTFGGGTKVEIKRTVAAPSVFIFPPSDEQLKSGTASVVCLLNNFYPREAKVQWKVDNALQSGNSQESVTEQDSKDSTYSLSSTLTLSKADYEKHKVYACEVTHQGLSSPVTKSFNRGEC
notes: also called Lambrolizumab; MK-3475
Work on B1 yielded a Kd [1] of 0.593 nM, a Kd [2] of 1660 nM and a Kd [3] of 7.45 nM.

B2: Avelumab/Bavencio (antibody, human IgG1, lambda)
heavy: not shown
light: QSALTQPASVSGSPGQSITISCTGTSSDVGGYNYVSWYQQHPGKAPKLMIYDVSNRPSGVSNRFSGSKSGNTASLTISGLQAEDEADYYCSSYTSSSTRVFGTGTKVTVLGQPKANPTVTLFPPSSEELQANKATLVCLISDFYPGAVTVAWKADGSPVKAGVETTKPSKQSNNKYAASSYLSLTPEQWKSHRSYSCQVTHEGSTVEKTVAPTECS
notes: also called MSB-0010718C; PF-06834635
For B2, the Kd [3] was 5.36 nM.

B3: IL-18 polypeptide C141 (SEQ ID NO: 71; N-terminal G, E6K, V11I, C38A, K53A, T63A, C76A, C127A) (ligand)
chain: GYFGKLKSKLSIIRNLNDQVLFIDQGNRPLFEDMTDSDARDNAPRTIFIISMYADSQPRGMAVAISVKCEKISTLSAENKIISFKEMNPPDNIKDTKSDIIFFQRSVPGHDNKMQFESSSYEGYFLAAEKERDLFKLILKKEDELGDRSIMFTVQNED
B3 was tested, and the “EC50, HEK-Blue IL18R reporter assay” value [4] was 1.68 pM.

B4: IL-18 polypeptide C192 (SEQ ID NO: 70; N-terminal G, E6K, V11I, C38A, M51G, K53A, T63A, C76A, C127A) (ligand)
chain: B3 chain with M52G
With B4 the “EC50, HEK-Blue IL18R reporter assay” value [4] was 14 pM.

B5: IL-18 polypeptide C140 (SEQ ID NO: 72; N-terminal 4xG, E6K, V11I, C38A, K53A, T63A, C76A, C127A) (ligand)
chain: GGGGYFGKLKSKLSIIRNLNDQVLFIDQGNRPLFEDMTDSDARDNAPRTIFIISMYADSQPRGMAVAISVKCEKISTLSAENKIISFKEMNPPDNIKDTKSDIIFFQRSVPGHDNKMQFESSSYEGYFLAAEKERDLFKLILKKEDELGDRSIMFTVQNED
B5 was tested, and the “EC50, HEK-Blue IL18R reporter assay” value [4] was 2.5 pM.

B6: IL-18 polypeptide C156 (V11I, C38A, N41A, K53A, C76A, C127A) (ligand)
chain: YFGKLESKLSIIRNLNDQVLFIDQGNRPLFEDMTDSDARDAAPRTIFIISMYADSQPRGMAVTISVKCEKISTLSAENKIISFKEMNPPDNIKDTKSDIIFFQRSVPGHDNKMQFESSSYEGYFLAAEKERDLFKLILKKEDELGDRSIMFTVQNED
In the case of B6, the “EC50, HEK-Blue IL18R reporter assay” value [4] is reported as 11.7 pM.

B7: IL-18 polypeptide C174 (K8L, E6K, V11I, C38A, K53A, T63A, C76A, C127A) (ligand)
chain: B6 chain with E6K, K8L, A41N, T63A
For B7, the “EC50, HEK-Blue IL18R reporter assay” value [4] was 0.29 pM.

B8: IL-18 polypeptide C165 (V11I, C38A, S55R, C76A, C127A) (ligand)
chain: B6 chain with A41N, A53K, S55R
For B8, the “EC50, HEK-Blue IL18R reporter assay” value [4] was 1.91 pM.

B9: IL-18 polypeptide C157 (V11I, C38A, K53A, C76A, C127A, D132A) (ligand)
chain: B6 chain with A41N, D132A
B9 was tested, and the “EC50, HEK-Blue IL18R reporter assay” value [4] was 1.95 pM.

B10: IL-18 polypeptide C177 (E6K, V11I, C38A, I49R, K53A, T63A, C76A, C127A) (ligand)
chain: B6 chain with E6K, A41N, I49R, T63A
B10 was tested, and the “EC50, HEK-Blue IL18R reporter assay” value [4] was 0.04 pM.

B11: IL-18 polypeptide C166 (V11I, C38A, S55T, C76A, C127A) (ligand)
chain: B6 chain with A41N, A53K, S55T
For B11, the “EC50, HEK-Blue IL18R reporter assay” value [4] was 4.73 pM.

B12: IL-18 polypeptide C162 (K8E, V11I, C38A, C76A, Q103R, C127A) (ligand)
chain: B6 chain with K8E, A41N, A53K, Q103R
In the case of B12, the “EC50, HEK-Blue IL18R reporter assay” value [4] is reported as 2.3 pM.

B13: IL-18 polypeptide C160 (V11I, C38A, K53A, C76A, D110A, C127A) (ligand)
chain: B6 chain with A41N, D110A
For B13, the “EC50, HEK-Blue IL18R reporter assay” value [4] was 2.02 pM.

B14: IL-18 polypeptide C159 (V11I, C38A, K53A, C76A, H109A, C127A) (ligand)
chain: B6 chain with A41N, H109A
B14 was tested, and the “EC50, HEK-Blue IL18R reporter assay” value [4] was 19.5 pM.

B15: IL-18 polypeptide C183 (SEQ ID NO: 69; E6K, V11I, C38A, M51G, K53A, T63A, C76A, C127A) (ligand)
chain: B6 chain with E6K, A41N, M51G, T63A
In the case of B15, the “EC50, HEK-Blue IL18R reporter assay” value [4] is reported as 0.1 pM.

B16: IL-18 polypeptide C161 (K8R, V11I, C38A, C76A, Q103E, C127A) (ligand)
chain: B6 chain with K8R, A41N, A53K, Q103E
B16 was tested, and the “EC50, HEK-Blue IL18R reporter assay” value [4] was 2.01 pM.

B17: IL-18 polypeptide C182 (E6K, V11I, C38A, K53A, T63A, C76A, C127A, V153Y) (ligand)
chain: B6 chain with E6K, A41N, T63A, V153Y
B17 was tested, and the “EC50, HEK-Blue IL18R reporter assay” value [4] was 0.08 pM.

B18: IL-18 polypeptide C184 (E6R, V11I, C38A, K53A, T63A, C76A, C127A) (ligand)
chain: B6 chain with E6R, A41N, T63A
With B18 the “EC50, HEK-Blue IL18R reporter assay” value [4] was 0.04 pM.

B19: IL-18 polypeptide C168 (V11I, C38A, C76A, S105K, C127A) (ligand)
chain: B6 chain with A41N, A53K, S105K
B19 was tested, and the “EC50, HEK-Blue IL18R reporter assay” value [4] was 7.73 pM.

B20: IL-18 polypeptide C176 (E6K, V11I, C38A, I49M, K53A, T63A, C76A, C127A) (ligand)
chain: B6 chain with E6K, A41N, I49M, T63A
For B20, the “EC50, HEK-Blue IL18R reporter assay” value [4] was 0.07 pM.

B21: IL-18 polypeptide C178 (E6K, V11I, C38A, K53A, T63A, C76A, Q103R, C127A) (ligand)
chain: B6 chain with E6K, A41N, T63A, Q103R
For B21, the “EC50, HEK-Blue IL18R reporter assay” value [4] was 0.26 pM.

B22: IL-18 polypeptide C158 (V11I, C38A, K53A, C76A, G108A, C127A) (ligand)
chain: B6 chain with A41N, G108A
B22 was tested, and the “EC50, HEK-Blue IL18R reporter assay” value [4] was 15.6 pM.

B23: IL-18 polypeptide C163 (V11I, C38A, C76A, Q103K, C127A) (ligand)
chain: B6 chain with A41N, A53K, Q103K
B23 was tested, and the “EC50, HEK-Blue IL18R reporter assay” value [4] was 1.5 pM.

B24: IL-18 polypeptide C167 (V11I, C38A, C76A, S105I, C127A) (ligand)
chain: B6 chain with A41N, A53K, S105I
For B24, the “EC50, HEK-Blue IL18R reporter assay” value [4] was 5.37 pM.

B25: IL-18 polypeptide C164 (V11I, C38A, S55H, C76A, C127A) (ligand)
chain: B6 chain with A41N, A53K, S55H
With B25 the “EC50, HEK-Blue IL18R reporter assay” value [4] was 3.14 pM.

B26: IL-18 polypeptide C181 (E6K, V11I, C38A, K53A, T63A, C76A, C127A, V153E) (ligand)
chain: B6 chain with E6K, A41N, T63A, V153E
For B26, the “EC50, HEK-Blue IL18R reporter assay” value [4] was 0.1 pM.

B27: IL-18 polypeptide C142 (Y1M, E6K, V11I, C38A, K53A, T63A, C76A, C127A) (ligand)
chain: B6 chain with Y1M, E6K, A41N, T63A
With B27 the “EC50, HEK-Blue IL18R reporter assay” value [4] was 0.02 pM.

B28: IL-18 polypeptide C179 (E6K, K8E, V11I, C38A, K53A, T63A, C76A, Q103R, C127A) (ligand)
chain: B6 chain with E6K, K8E, A41N, T63A, Q103R
With B28 the “EC50, HEK-Blue IL18R reporter assay” value [4] was 0.4 pM.
